Patent publication US20140107043A1 (INSTITUT PASTEUR, published 2014)
Where no end group is shown, it is not given here. [ ]: non-standard residue; d: D form. Phe(4-CH2COOH) = N[C@@H](Cc1ccc(CC(=O)O)cc1)C(=O)O; GABA = NCCCC(=O)O

Columns and labels:
Test in all cases: cell-based or functional assay
[1] = molecular target: envelope gp120 of HIV-1/Ba-L (R5-tropic strain), on virus (HIV-1 strain Ba-L)
[2] = molecular target: envelope gp120 of HIV-1-LAI (X4-tropic strain), on virus (HIV-1 strain LAI, UniProt P03377 33-516, limits assumed)
[3] = molecular target: envelope gp120 of HIV-1 96USHIPS4 (clade B, R5/X4), on virus (HIV-1 strain 96USHIPS4)
[4] = molecular target: envelope gp120 of HIV-1 92HT599 (clade B, X4), on virus (HIV-1 strain 92HT599)
[5] = molecular target: envelope gp120 of HIV-1 92US723 (clade B, R5/X4), on virus (HIV-1 strain 92US723)
[6] = molecular target: envelope gp120 of HIV-1 92UG029 (clade A, X4), on virus (HIV-1 strain 92UG029)
[7] = molecular target: envelope gp120 of HIV-1 98IN017 (clade C, X4), on virus (HIV-1 strain 98IN017)
[8] = molecular target: envelope gp120 of HIV-1 SF162 (clade B, R5), on virus (HIV-1 strain SF162, UniProt P19550 32-502)

SYDYSYDYSYDYS (N-terminal gamma-aminobutyric acid (NH2-(CH2)3-CO-)) [P3Y (H-gamma-Abu-S-Y-D-Y-S-Y-D-Y-S-Y-D-Y-S-OH)]
> 500 nM: ED50, HIV-1 replication in PBMC [1] | ED70, HIV-1 replication in PBMC [1] | ED90, HIV-1 replication in PBMC [1] | ED50, HIV-1 replication in PBMC [2] | ED70, HIV-1 replication in PBMC [2] | ED90, HIV-1 replication in PBMC [2]

B1: P3YSO3 (H-gamma-Abu-S-YSO3-D-YSO3-S-YSO3-D-YSO3-S-YSO3-D-YSO3-S-OH) (peptide)
peptide: SXDXSXDXSXDXS
modifications: N-terminal gamma-aminobutyric acid (NH2-(CH2)3-CO-); sulfotyrosine (YSO3) at the six X positions of S-X-D-X-S-X-D-X-S-X-D-X-S
> 500 nM: ED50, HIV-1 replication in PBMC [3] | ED70, HIV-1 replication in PBMC [3] | ED90, HIV-1 replication in PBMC [3] | ED50, HIV-1 replication in PBMC [4] | ED70, HIV-1 replication in PBMC [4] | ED90, HIV-1 replication in PBMC [4] | ED50, HIV-1 replication in PBMC [5] | ED70, HIV-1 replication in PBMC [5] | ED90, HIV-1 replication in PBMC [5] | ED50, HIV-1 replication in PBMC [6] | ED70, HIV-1 replication in PBMC [6] | ED90, HIV-1 replication in PBMC [6] | ED50, HIV-1 replication in PBMC [7] | ED70, HIV-1 replication in PBMC [7] | ED90, HIV-1 replication in PBMC [7] | ED50, HIV-1 replication in PBMC [8] | ED70, HIV-1 replication in PBMC [8] | ED90, HIV-1 replication in PBMC [8]

B2: P3pF (H-gamma-Abu-S-pF-D-pF-S-pF-D-pF-S-pF-D-pF-S-OH) (peptide)
peptide: [GABA]S[Phe(4-CH2COOH)]D[Phe(4-CH2COOH)]S[Phe(4-CH2COOH)]D[Phe(4-CH2COOH)]S[Phe(4-CH2COOH)]D[Phe(4-CH2COOH)]S-OH
modifications: N-terminus assumed
SMILES: NCCCC(=O)N[C@@H](CO)C(=O)N[C@@H](Cc1ccc(CC(=O)O)cc1)C(=O)N[C@@H](CC(=O)O)C(=O)N[C@@H](Cc1ccc(CC(=O)O)cc1)C(=O)N[C@@H](CO)C(=O)N[C@@H](Cc1ccc(CC(=O)O)cc1)C(=O)N[C@@H](CC(=O)O)C(=O)N[C@@H](Cc1ccc(CC(=O)O)cc1)C(=O)N[C@@H](CO)C(=O)N[C@@H](Cc1ccc(CC(=O)O)cc1)C(=O)N[C@@H](CC(=O)O)C(=O)N[C@@H](Cc1ccc(CC(=O)O)cc1)C(=O)N[C@@H](CO)C(=O)O
> 500 nM: ED50, HIV-1 replication in PBMC [1] | ED70, HIV-1 replication in PBMC [1] | ED90, HIV-1 replication in PBMC [1] | ED50, HIV-1 replication in PBMC [2] | ED70, HIV-1 replication in PBMC [2] | ED90, HIV-1 replication in PBMC [2]

EEEEEEEEEEEEE (N-terminal gamma-aminobutyric acid (NH2-(CH2)3-CO-)) [E13 (H-gamma-Abu-(Glu)13-OH)]
> 500 nM: ED50, HIV-1 replication in PBMC [1] | ED70, HIV-1 replication in PBMC [1] | ED90, HIV-1 replication in PBMC [1] | ED50, HIV-1 replication in PBMC [2] | ED70, HIV-1 replication in PBMC [2] | ED90, HIV-1 replication in PBMC [2]
